In the assay the target is human CCR8 (human) (UniProt P51685). The assay can be described thus: cell-based or functional assay.

From patent US20230049152A1 come the findings set out here.

B1: murine anti-human CCR8 mAb 433H (BD Biosciences) (antibody, from another filing, mouse IgG2a, V domains shown)
VH: EVQLVETGGGLVQPKGSLRLSCAASGFPFNTFAMNWVRQAPGKGLEWLARIRSKSNNYATYYADSVKDRFTISRDDSRRMLYLLMNNVKFEDTAIYYCVRGKENNYGYAMDYWGQGTSVTVSS
VL: DIVMTQAAPSVPVTPGESVSISCRSSQSLLHSNGNTYLYWFLQRPGQSPQLLIYRMSNLASGVPDRFSGSGSGTAFTLRISRVEAEDVGVYYCMQHLEYPFTFGIGTKLELKR
In the case of B1, the ADCC reporter EC50, mFcgRIV Jurkat cells with CHO/hCCR8 (FIG. 11D) was 0.26 nM; the CCL1 blocking potency IC50, Ca2+ influx was 17.6 nM; the induction fold at about 1 nM antibody, mFcgRIV Jurkat NFAT-luciferase reporter was greater than 12 fold; the induction fold plateau at about 40 nM antibody, mFcgRIV Jurkat NFAT-luciferase reporter is 13 fold.
